T1: FLAG-tagged human RSPO3 (Genentech) (human, UniProt Q9BXY4 22-272)
T1 construct: also called hRSPO3; RSPO3 coated plates; not shown: FLAG tag
T1 sequence: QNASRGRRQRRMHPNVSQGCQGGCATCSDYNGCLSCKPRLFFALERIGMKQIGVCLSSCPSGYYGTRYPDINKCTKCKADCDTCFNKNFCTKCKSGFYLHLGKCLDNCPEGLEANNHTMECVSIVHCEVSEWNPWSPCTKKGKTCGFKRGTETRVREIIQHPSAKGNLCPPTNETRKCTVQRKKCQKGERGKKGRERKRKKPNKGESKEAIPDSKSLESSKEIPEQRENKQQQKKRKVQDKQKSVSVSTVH

T2: human RSPO3 with C-terminal HA tag, stably expressed in 293 cells (human, UniProt Q9BXY4 22-272)
T2 construct: Whole open reading frame expressed in HEK-293 cells (high, medium, low); FFPE pellets; also called hRSPO3; RSPO3 Hi
T2 sequence: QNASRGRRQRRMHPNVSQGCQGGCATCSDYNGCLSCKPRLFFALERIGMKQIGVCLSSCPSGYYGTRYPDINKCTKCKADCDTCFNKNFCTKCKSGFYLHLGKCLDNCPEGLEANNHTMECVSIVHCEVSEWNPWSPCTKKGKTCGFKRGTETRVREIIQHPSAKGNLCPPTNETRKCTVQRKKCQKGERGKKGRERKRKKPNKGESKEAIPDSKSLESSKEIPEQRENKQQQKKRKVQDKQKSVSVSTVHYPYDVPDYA

T3: recombinant human RSPO3 (human, UniProt Q9BXY4 22-272)
T3 sequence: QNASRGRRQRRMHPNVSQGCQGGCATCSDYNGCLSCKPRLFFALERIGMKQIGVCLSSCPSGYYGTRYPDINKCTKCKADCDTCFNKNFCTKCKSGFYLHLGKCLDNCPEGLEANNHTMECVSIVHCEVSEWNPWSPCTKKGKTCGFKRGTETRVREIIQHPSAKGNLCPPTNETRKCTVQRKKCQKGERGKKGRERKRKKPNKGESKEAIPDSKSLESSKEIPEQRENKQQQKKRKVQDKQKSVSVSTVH

T4: cynomolgus RSPO3 (cynomolgus, UniProt A0A2K5UTQ7 22-273)
T4 sequence: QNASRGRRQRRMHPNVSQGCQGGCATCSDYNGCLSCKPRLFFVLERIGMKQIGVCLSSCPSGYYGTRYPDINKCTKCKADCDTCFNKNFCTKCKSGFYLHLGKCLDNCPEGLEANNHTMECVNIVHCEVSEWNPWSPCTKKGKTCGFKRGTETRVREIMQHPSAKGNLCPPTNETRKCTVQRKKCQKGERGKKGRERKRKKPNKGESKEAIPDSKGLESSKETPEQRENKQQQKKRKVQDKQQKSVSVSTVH

T5: mouse RSPO3 (mouse, UniProt Q2TJ95 22-277, limits assumed)
T5 sequence (looked up): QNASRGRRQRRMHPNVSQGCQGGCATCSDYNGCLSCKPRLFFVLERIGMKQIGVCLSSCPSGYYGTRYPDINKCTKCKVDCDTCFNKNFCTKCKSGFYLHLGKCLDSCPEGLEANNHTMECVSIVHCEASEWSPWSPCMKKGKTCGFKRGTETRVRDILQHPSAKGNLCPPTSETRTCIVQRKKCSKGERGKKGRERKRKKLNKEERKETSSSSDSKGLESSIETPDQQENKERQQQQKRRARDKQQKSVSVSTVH


Assays:
[1] = molecular target: T1, FLAG-tagged human RSPO3 (Genentech); assay: competitive binding ELISA: titrated against biotinylated RNF43-Flag (RNF43-ECD) binding to plate-coated hRSPO3; signal = bound RNF43, normalized OD
[2] = molecular target: T1, FLAG-tagged human RSPO3 (Genentech); assay: competitive binding ELISA: antibody titrated against LGR4-Fc (LGR4-ECD) binding to plate-coated hRSPO3; signal = bound LGR4-Fc, OD(450/630)/OD no antibody
Method: To measure the activity of anti-RSPO antibodies in blocking the binding of LGR4 and -5 ECDs to RSPOs, MaxiSorp 384-well microwell plates (Thermo Scientific Nunc, Roskilde, Denmark) were coated with 25 ul/well of 0.5 μg/ml hRSPO2 or hRSPO3 (Genentech) in 50 mM carbonate buffer, pH 9.6, overnight at 4° C. Plates were blocked with at 80 ul/well of 0.5% bovine serum albumin, 15 parts per million Proclin 300 in phosphate buffered saline (PBS), pH 7.4, for 1 hour. Serially diluted anti-RSPO antibodies ([…] in […] serial dilution plus buffer blank) containing 0.1 μg/ml LGR4-Fc or 0.015 μg/ml LGR5-Fc in assay buffer (0.5% BSA, 0.05% polysorbate 20, 15 parts per million Proclin 300 in PBS) were added to the plates at 25 ul/well. After a 2-hour incubation, LGR4-Fc and LGR5-Fc bound to the plates were detected using peroxidase labeled goat F(ab′)2 anti-human Fc (Jackson ImmunoResearch, West Grove, Pa.). After a 1 hour incubation, the substrate 3,3′,5,5′-tetramethyl benzidine (Moss Inc., Pasadena, Md.) was added to the plates and the reaction was stopped by adding 1 M phosphoric acid. Plates were washed with PBS, pH 7.4, containing 0.05% tween 20, between steps and all the incubation steps following the coating step were performed at room temperature on an orbital shaker. Absorbance was read at 450 nm on a multiskan Ascent reader (Thermo Scientific, Hudson, N.H.).

[3] = molecular target: T2, human RSPO3 with C-terminal HA tag, …; assay: IHC, FFPE 293 cell pellet, RSPO3 Med
[4] = molecular target: T3, recombinant human RSPO3; assay: cell-based or functional assay
[5] = molecular target: mouse RSPO2 (mouse, UniProt Q8BFU0 22-205, limits assumed); assay: cell-based or functional assay
[6] = molecular target: recombinant human RSPO2 (human, UniProt Q6UXX9 22-243); assay: cell-based or functional assay
[7] = molecular target: cynomolgus RSPO2 (cynomolgus, UniProt G7PCH9 22-243); assay: cell-based or functional assay
[8] = molecular target: T4, cynomolgus RSPO3; assay: cell-based or functional assay
[9] = molecular target: T5, mouse RSPO3; assay: cell-based or functional assay
[10] = molecular target: T2, human RSPO3 with C-terminal HA tag, …; assay: IHC, FFPE 293 cell pellet, RSPO3 Hi
[11] = molecular target: T6, human RSPO4 with C-terminal HA tag, stably expressed in 293 cells (human, UniProt Q2I0M5 20-234); assay: IHC, FFPE 293 cell pellet, RSPO4 Hi; - = not significant staining
T6 construct: also called hRSPO4; RSPO4 Hi

[12] = molecular target: T7, human RSPO1 with C-terminal HA tag, stably expressed in 293 cells (human, UniProt Q2MKA7 21-263); assay: IHC, FFPE 293 cell pellet, RSPO1 Hi; - = not significant staining
T7 construct: also called hRSPO1; RSPO1 Hi

[13] = molecular target: T2, human RSPO3 with C-terminal HA tag, …; assay: IHC, FFPE 293 cell pellet, RSPO3 Low
[14] = molecular target: T3, recombinant human RSPO3; assay: SPR, BIAcore T200, huRSPO3 immobilized, antibody injected
Method: (§1) The binding affinity of the antibodies in this section was determined by BIAcore™ T200 Format. Briefly, BIAcore™ research grade CMS chips were activated with 1-ethyl-3-(3-dimethylaminopropyl) carbodiimide (EDC) and N-hydroxysuccinimide (NETS) reagents according to the supplier's instructions. huRSPO3 was immobilized to achieve approximately 50 response units (RU) in each flow cell. Unreacted coupling groups were blocked with 1M ethanolamine. For kinetics measurements, Four-fold serial dilutions of variant antibody was injected in HBS-P buffer (0.01M HEPES pH7.4, 0.15M NaCl, 0.005% surfactant P20) at 25° C. with a flow rate of 30 μl/min. Association rates (kon) and dissociation rates (koff) were calculated using a 1:1 Langmuir binding model (BIAcore™ T200 Evaluation Software version 2.0). The equilibrium dissociation constant (Kd) was calculated as the ratio koff/kon.

[15] = molecular target: T4, cynomolgus RSPO3; assay: SPR, BIAcore T200, cyno RSPO3 immobilized, antibody injected
Method: as §1
(§2) The hu5D6v4.1 and the chimeric 5D6 were tested for their ability to bind cyno and mouse RSPO3 as described above except that cyno or murine RSPO3 replaced huRSPO3 in the binding assay. Binding properties for the humanized antibodies are shown below in Table 5.

[16] = molecular target: T5, mouse RSPO3; assay: SPR, BIAcore T200, murine RSPO3 immobilized, antibody injected
Method: as §1, §2

mouse RSPO2, sequence (Q8BFU0 22-205 limits assumed): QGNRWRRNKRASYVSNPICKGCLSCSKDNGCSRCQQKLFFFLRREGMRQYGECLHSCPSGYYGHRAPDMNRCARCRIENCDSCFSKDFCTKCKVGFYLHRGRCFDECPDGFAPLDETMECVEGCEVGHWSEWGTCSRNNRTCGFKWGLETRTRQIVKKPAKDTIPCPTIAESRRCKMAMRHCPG
T6 sequence (Q2I0M5 other isoform, or with tags, fused parts or gaps limits assumed): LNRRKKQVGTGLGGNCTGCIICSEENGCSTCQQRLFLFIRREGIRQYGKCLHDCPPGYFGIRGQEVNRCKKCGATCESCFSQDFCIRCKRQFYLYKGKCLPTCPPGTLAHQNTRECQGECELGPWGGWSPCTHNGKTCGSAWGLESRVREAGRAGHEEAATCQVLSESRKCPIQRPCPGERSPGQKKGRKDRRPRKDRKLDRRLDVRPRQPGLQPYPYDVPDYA
recombinant human RSPO2, sequence (Q6UXX9 22-243): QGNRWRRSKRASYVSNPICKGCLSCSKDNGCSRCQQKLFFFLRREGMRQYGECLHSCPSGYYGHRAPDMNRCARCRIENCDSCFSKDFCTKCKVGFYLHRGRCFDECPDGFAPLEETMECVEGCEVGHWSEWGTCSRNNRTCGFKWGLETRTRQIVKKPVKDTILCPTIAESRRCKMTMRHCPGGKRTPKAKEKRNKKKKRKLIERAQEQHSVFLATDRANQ
T7 sequence (Q2MKA7 other isoform, or with tags, fused parts or gaps limits assumed): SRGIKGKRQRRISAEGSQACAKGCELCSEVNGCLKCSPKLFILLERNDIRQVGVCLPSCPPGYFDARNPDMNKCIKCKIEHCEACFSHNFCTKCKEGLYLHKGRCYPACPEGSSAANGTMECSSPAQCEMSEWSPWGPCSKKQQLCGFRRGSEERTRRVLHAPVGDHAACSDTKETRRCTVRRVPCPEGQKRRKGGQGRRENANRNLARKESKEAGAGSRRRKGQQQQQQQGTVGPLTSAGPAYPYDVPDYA
cynomolgus RSPO2, sequence (G7PCH9 entry or part of it): as the sequence (Q6UXX9 22-243) above, with V160A, L165P, T178A counted along it

Binder | IC50 (read off the curve) [1] | IC50 (read off the curve) [2] | percentage of cells staining [3] | IC50, WNT luciferase reporter, bivalent antibody [4] | IC50, WNT luciferase reporter, bivalent antibody [5] | IC50, WNT luciferase reporter, bivalent antibody [6] | IC50, WNT luciferase reporter, bivalent antibody [7] | IC50, WNT luciferase reporter, bivalent antibody [8] | IC50, WNT luciferase reporter, bivalent antibody [9] | percentage of cells staining [10] | binding result [11] | binding result [12] | percentage of cells staining [13] | Kd [14] | koff [14] | kon [14] | Kd [15] | koff [15] | kon [15] | Kd [16] | other results
5D6 (antibody, V domains shown, Murine; also called monoclonal antibody 5D6; mu5D6) VH: EVQLQESGPSLVKPSQTLSLTCSVTGDSITSGYWNWIRKFPGNKFEYMGYISYSGKTYQNPSLKSRISITRDTSKNQYHLQLNSVTTEDTATYYCATYYGYGGPWFAYWGQGTLVTVSA VL: DIVLTQSPSSMYASLGERVTITCKASQDIDSYLSWFQQKPGKSPKTLIYLTNRLVDGVPSRFSGSGSGQDYSLTISSLEYEDMGIYYCLHYDEFPLTFGAGTKLEIK | ~0.1 µg/mL | ~0.1 µg/mL | 70% | 0.3 pM | > 500000 pM | > 500000 pM | > 500000 pM | 0.3 pM | 1 pM | > 95% | no binding | no binding | 30% |  |  |  |  |  |  |  | 
chimeric 5D6 (antibody, V domains shown, also called 5D6 chimera) VH: EVQLQESGPSLVKPSQTLSLTCSVTGDSITSGYWNWIRKFPGNKFEYMGYISYSGKTYQNPSLKSRISITRDTSKNQYHLQLNSVTTEDTATYYCATYYGYGGPWFAYWGQGTLVTVSA VL: DIVLTQSPSSMYASLGERVTITCKASQDIDSYLSWFQQKPGKSPKTLIYLTNRLVDGVPSRFSGSGSGQDYSLTISSLEYEDMGIYYCLHYDEFPLTFGAGTKLEIK |  |  |  |  |  |  |  |  |  |  |  |  |  | 33.1 pM | 0.000116 s⁻¹ | 3.51e+06 M⁻¹ s⁻¹ | 45.3 pM | 0.000224 s⁻¹ | 4.96e+06 M⁻¹ s⁻¹ | 57.8 pM | koff [16]: 0.000237 s⁻¹; kon [16]: 4.1e+06 M⁻¹ s⁻¹
hu5D6v4.1 (Fab, V domains shown, Humanized 5D6 variant; also called v1+T69 (LC)+(W47+I48+V67+F78 (HC))) VH: EVQLVESGPGLVKPSETLSLTCTVSGDSITSGYWNWIRQPPGKGLEWIGYISYSGKTYQNPSLKSRVTISRDTSKNQFSLKLSSVTAADTAVYYCATYYGYGGPWFAYWGQGTLVTVSS VL: DIQMTQSPSSLSASVGDRVTITCKASQDIDSYLSWFQQKPGKAPKTLIYLTNRLVDGVPSRFSGSGSGTDYTLTISSLQPEDFATYYCLHYDEFPLTFGQGTKVEIK |  |  |  |  |  |  |  |  |  |  |  |  |  | 63.5 pM | 0.000229 s⁻¹ | 3.6e+06 M⁻¹ s⁻¹ | 81.1 pM | 0.000434 s⁻¹ | 5.35e+06 M⁻¹ s⁻¹ | 99.3 pM | koff [16]: 0.000423 s⁻¹; kon [16]: 4.26e+06 M⁻¹ s⁻¹
4H1 (antibody, V domains shown, Hybridoma-derived monoclonal (mice or hamsters immunized with hRSPO2 and/or hRSPO3), cloned, expressed and purified; also called monoclonal antibody 4H1) VH: EVKLVESGGGFVKPGGSLKLSCAASGFTFSNFAMSWVRQSPEKRLEWVAEINNGGNYAYYQDTVTGRFTISRDNAKNTLYLEMSSLRSEDTAMYFCAREDYVNYEAYFAYWGQGTTLTVSS VL: SIVMTQTPLSLPVSLGDQASISCRSSQSIVHSNGNTYLEWYLQKPGQSPKLLIYRISNRFSGVPDRFSGSGSGTDFTLKISRVEAEDLGVYYCFQGSHVPYTFGGGTKLEIK | ~0.08 µg/mL | ~0.1 µg/mL | 60% | 800 pM | > 500000 pM | 6400 pM | 2800 pM | 290 pM | 690 pM | 90% | no binding | no binding | 30% |  |  |  |  |  |  |  | 
6E9 (antibody, V domains shown, also called monoclonal antibody 6E9) VH: QVQLKESGPGLVQPSQSLSITCTVSGFSLTSYGVHWVRQSPGKGLEWLGVIWSGGSTDYNAAFISRLSISKDNSKSQVFFKMNSLQANDTAIYYCARNDGYYYFDYWGQGTTLTVSS VL: DIKMTQSTSSLSASLGDRVTISCRASQDISNYLNWYQQKPDGTVKLLIYYTSRLHSGVPSRFSGSGSGTDYSLTISNLEQEDIATYFCQQGDTLPPAFGGGTKLEIK | ~0.08 µg/mL | ~0.1 µg/mL | 70% | 5600 pM | > 500000 pM | > 500000 pM | > 500000 pM | 6500 pM | 140000 pM | > 95% | no binding | no binding | 50% |  |  |  |  |  |  |  | 
